Measured values reported in paper PMC4882731 (Journal of the American Chemical Society, 2016).

B1: ChlI C244S Alexa Fluor 488 (natural protein, Synechocystis, UniProt P51634 1-357, looked up)
chain: MTATLAAPSKTRRVVFPFTAIVGQDEMKLALLLNVIDPKIGGVMIMGDRGTGKSTTIRALADLLPEIEVVANDPFNSSPSDPEMMSEEVRIRVDSQEPLSIVKKKVTMVDLPLGATEDRVCGTIDIEKALSEGVKAFEPGLLAKANRGILYVDEVNLLDDHLVDVLLDSAAGGWNTVEREGISIRHPARFVLVGSGNPEEGELRPQLLDRFGMHAEIRTVREPELRVKIVEQRTEFDQNPHPFSDQYQTEQEALQAKIVNAQNLLPQVTIDYDYRVKVSEVCAELDVDGLRGDIVTNRAAKALAAFEGRTEVTVDDISRVIVLCLRHRLRKDPLESIDSGSKVEKVFKRVFGVVDEA
modifications: Alexa Fluor 488 C5 maleimide label (labelled residue not stated)

Key:
[1] = biological target: ChlI, C-terminally attached to the surface via His6 tag (Synechocystis) (UniProt P51634); assay: single molecule force spectroscopy
ChlD wild-type = ChlD wild-type (Synechocystis, UniProt P72772 1-676); assay: MST
Sequence of ChlD wild-type (P72772 whole entry): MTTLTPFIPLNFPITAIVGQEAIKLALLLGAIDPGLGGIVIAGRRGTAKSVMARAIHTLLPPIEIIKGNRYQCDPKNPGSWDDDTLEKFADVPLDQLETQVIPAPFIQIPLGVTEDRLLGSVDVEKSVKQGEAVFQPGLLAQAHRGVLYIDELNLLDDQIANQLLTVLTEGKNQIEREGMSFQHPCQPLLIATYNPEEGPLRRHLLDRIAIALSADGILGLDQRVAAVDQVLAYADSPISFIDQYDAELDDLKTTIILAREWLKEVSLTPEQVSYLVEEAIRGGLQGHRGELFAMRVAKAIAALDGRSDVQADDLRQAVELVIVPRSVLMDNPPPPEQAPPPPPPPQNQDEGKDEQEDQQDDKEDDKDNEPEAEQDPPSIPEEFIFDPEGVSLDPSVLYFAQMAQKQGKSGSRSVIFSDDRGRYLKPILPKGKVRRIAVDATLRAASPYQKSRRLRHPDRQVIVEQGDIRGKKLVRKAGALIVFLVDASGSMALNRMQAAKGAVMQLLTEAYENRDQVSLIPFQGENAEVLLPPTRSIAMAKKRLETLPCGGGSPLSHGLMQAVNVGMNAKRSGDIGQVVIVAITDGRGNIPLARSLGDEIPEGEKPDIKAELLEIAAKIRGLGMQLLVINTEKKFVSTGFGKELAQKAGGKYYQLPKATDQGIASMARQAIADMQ

ChlD R208A = ChlD R208A (Synechocystis, UniProt P72772 1-676, R208A); assay: MST
Sequence of ChlD R208A (P72772 whole entry R208A): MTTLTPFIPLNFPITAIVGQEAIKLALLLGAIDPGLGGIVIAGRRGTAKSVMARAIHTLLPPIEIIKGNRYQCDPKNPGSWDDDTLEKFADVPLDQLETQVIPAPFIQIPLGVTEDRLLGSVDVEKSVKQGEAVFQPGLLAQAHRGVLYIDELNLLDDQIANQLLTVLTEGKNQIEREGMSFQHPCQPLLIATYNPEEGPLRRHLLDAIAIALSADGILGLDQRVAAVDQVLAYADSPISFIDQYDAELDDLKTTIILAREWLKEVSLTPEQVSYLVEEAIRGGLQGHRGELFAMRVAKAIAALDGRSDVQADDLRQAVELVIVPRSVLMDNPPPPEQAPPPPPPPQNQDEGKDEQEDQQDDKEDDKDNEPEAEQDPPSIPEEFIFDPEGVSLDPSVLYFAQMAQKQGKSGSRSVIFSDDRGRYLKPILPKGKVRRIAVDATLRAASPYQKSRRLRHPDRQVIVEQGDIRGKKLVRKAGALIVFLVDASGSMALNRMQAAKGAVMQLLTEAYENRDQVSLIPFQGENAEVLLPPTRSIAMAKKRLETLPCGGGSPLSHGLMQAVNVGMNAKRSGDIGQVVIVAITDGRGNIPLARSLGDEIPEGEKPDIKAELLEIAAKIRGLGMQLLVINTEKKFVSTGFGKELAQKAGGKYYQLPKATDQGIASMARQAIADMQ

ChlD R289A = ChlD R289A (Synechocystis, UniProt P72772 1-676, R289A); assay: MST
Sequence of ChlD R289A (P72772 whole entry R289A): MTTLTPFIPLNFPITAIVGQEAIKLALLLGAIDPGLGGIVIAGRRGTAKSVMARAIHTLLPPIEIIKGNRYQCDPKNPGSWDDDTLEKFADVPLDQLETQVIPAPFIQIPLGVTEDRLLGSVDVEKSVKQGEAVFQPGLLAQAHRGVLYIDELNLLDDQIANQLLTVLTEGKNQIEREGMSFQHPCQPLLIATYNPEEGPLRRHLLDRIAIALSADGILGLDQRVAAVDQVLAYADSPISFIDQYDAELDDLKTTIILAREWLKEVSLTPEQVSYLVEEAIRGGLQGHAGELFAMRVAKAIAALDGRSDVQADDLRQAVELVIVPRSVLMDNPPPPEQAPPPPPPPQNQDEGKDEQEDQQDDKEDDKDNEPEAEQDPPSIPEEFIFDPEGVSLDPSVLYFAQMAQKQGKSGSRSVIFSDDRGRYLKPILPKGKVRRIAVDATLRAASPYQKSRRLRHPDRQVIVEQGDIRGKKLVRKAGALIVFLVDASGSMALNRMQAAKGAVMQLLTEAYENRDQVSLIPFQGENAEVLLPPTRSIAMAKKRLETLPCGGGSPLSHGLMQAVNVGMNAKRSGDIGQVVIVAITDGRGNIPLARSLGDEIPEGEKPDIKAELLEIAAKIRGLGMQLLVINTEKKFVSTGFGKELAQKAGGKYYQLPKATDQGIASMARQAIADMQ

Molecule	interaction probability [1] [%]	modal interaction force [1] [pN]	rupture force [1] [pN]	Kd (ChlD wild-type) [nM]	Kd (ChlD R208A) [nM]	Kd (ChlD R289A) [nM]
ChlD tagged at the C-terminus with a His6 sequence (from UniProt P72772 1-676) (natural protein)	30.5	108	109	–	–	–
B1	–	–	–	7.6 ± 0.8	328 ± 67.7	2540 ± 219
